Targets include Beta secretase, P56817; DPP7, Q9UHL4; Ataxin3, P54252.
Holding throughout (assay): cell-based or functional assay
Experiment [1] addresses T1, Ubiquitin carboxy-terminal hydrolase L3, P15374.
T1 chain: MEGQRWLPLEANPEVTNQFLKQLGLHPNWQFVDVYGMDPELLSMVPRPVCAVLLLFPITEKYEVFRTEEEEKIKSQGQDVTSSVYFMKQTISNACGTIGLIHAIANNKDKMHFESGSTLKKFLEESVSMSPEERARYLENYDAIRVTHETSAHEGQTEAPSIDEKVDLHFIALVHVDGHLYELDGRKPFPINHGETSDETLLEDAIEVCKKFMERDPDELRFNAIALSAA

A further experiment has as its target T2, A20, P21580.
T2 chain: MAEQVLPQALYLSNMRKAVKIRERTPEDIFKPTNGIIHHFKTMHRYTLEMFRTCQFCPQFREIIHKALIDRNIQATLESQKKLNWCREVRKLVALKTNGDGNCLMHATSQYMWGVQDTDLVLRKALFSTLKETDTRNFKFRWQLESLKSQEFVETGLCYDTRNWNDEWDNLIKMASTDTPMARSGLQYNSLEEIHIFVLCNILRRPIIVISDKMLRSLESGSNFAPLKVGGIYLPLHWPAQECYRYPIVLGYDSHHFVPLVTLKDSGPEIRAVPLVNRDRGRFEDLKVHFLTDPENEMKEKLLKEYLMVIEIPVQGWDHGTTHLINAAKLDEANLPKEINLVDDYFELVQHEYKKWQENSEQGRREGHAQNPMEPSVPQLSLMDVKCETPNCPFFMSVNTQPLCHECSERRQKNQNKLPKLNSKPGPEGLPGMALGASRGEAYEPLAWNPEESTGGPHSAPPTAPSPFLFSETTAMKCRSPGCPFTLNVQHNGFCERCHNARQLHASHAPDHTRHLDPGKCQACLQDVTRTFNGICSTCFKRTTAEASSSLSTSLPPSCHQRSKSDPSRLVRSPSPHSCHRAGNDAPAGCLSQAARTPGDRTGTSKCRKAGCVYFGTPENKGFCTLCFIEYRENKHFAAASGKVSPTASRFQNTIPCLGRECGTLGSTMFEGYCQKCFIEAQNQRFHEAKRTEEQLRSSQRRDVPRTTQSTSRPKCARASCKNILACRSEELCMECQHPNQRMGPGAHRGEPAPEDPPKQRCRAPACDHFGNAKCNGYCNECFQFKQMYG

The next experiment has as its target T3, COX2(h) (human), P35354.
T3 chain: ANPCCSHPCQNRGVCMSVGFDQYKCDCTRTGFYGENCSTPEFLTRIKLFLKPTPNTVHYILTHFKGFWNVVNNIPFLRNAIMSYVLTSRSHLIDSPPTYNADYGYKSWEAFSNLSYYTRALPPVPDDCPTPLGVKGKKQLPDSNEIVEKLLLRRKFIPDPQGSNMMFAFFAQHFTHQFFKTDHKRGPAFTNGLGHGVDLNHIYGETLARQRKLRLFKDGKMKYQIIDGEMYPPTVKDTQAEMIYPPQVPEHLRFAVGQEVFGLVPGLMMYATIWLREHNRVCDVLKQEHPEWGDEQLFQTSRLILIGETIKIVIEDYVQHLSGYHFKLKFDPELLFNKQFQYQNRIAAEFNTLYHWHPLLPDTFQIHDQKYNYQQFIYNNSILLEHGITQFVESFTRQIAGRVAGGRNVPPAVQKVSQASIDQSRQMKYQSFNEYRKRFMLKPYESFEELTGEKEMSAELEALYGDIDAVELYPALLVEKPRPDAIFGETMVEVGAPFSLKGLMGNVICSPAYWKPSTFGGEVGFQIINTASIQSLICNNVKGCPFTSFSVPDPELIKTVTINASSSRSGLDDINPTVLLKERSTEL

The target of experiment [2] is Lek kinase (h) (human), P06239.
The target of experiment [3] is Activated Protein C, P04070.
The target in another experiment is T4, Caspase-9, P55211.
T4 chain: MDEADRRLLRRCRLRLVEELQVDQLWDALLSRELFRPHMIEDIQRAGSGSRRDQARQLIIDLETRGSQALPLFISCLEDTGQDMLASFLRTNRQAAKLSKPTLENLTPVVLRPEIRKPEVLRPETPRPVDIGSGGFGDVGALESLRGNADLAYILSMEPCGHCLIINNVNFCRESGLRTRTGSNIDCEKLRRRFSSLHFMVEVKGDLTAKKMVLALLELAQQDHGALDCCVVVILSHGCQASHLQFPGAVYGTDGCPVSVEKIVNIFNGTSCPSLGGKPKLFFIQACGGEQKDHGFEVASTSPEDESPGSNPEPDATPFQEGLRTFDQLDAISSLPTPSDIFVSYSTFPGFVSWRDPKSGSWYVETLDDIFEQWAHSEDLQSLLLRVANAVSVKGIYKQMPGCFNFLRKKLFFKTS

Another experiment deals with T5, Caspase-7, P55210.
T5 chain: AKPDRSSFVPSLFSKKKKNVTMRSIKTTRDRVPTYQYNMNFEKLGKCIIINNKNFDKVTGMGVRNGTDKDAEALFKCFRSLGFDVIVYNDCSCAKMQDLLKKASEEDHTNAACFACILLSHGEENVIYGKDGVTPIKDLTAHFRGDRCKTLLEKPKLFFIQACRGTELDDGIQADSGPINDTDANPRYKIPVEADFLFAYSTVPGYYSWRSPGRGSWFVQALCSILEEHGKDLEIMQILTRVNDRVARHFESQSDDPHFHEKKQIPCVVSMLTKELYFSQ

The target of another experiment is T6, Cathepsin F, Q9UBX1.
T6 chain: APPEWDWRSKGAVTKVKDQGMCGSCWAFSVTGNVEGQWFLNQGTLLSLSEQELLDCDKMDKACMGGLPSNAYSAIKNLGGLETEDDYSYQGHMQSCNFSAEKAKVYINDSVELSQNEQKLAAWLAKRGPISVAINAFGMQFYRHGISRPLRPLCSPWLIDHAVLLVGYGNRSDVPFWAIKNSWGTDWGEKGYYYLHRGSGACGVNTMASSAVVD

This is an account of results in US20230212549A1, “COMPOUNDS COMPRISING A […] LIGAND AND USE THEREOF” (priority 2021, published 2023).

Bridge positions count the residues as written; N and C are the ends.

Chain of Beta secretase, P56817 (P56817 22-457 limits assumed): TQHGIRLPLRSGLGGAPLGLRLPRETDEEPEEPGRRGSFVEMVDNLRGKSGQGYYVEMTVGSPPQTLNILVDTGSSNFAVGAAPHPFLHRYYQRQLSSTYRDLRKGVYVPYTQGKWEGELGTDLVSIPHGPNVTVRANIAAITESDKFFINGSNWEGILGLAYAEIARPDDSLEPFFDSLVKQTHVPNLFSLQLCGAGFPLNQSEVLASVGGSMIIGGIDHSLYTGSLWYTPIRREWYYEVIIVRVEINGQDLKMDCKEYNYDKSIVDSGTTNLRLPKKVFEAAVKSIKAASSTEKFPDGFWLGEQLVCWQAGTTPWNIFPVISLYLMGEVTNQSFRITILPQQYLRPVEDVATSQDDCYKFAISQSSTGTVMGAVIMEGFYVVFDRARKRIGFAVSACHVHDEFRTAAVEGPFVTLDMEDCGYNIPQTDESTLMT
Chain of Ataxin3, P54252 (P54252 whole entry): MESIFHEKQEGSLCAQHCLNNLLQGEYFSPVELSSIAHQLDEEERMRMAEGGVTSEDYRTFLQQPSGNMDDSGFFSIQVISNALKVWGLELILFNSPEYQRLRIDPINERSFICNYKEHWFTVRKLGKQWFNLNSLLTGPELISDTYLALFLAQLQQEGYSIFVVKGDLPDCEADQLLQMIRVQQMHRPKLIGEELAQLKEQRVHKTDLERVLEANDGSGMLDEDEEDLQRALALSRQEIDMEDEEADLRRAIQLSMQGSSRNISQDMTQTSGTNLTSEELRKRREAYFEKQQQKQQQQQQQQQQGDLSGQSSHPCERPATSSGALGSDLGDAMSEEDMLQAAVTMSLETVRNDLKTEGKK
Chain of Lek kinase (h) (human), P06239 (P06239 whole entry): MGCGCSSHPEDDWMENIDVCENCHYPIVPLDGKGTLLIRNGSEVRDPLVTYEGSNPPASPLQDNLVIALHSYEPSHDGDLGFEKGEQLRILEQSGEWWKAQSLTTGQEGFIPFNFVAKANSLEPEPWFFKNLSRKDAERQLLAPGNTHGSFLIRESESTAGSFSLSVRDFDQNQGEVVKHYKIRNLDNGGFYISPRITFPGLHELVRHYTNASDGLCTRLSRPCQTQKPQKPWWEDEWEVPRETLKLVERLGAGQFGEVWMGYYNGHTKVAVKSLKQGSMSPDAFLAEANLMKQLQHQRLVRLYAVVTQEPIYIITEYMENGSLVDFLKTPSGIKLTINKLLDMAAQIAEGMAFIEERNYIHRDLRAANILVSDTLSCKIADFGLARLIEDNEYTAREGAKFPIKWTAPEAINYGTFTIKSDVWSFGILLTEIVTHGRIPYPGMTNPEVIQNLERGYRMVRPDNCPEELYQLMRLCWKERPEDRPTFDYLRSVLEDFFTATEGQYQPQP

B1: Hex-[Cys(tMeBn(DOTA-AET))-Pro-Pro-Thr-Gln-Phe-Cys]-OH (peptide)
peptide: Hex-CPPTQFC-OH
modifications: bridge 1-7; not fully specified (bridges); printed as Hex-[Cys(tMeBn(DOTA-AET))-Pro-Pro-Thr-Gln-Phe-Cys]-OH
Consider B1, for which the Percentage inhibition (%) at 1 µM in experiment [1] is 0%; in the experiment with Beta secretase, P56817, 1%; in the experiment with DPP7, Q9UHL4, -1%; in the experiment with A20, P21580, 1%; with Ataxin3, P54252, 2%; in [3], -11%. Further, the Percentage inhibition (%) at 1 µM with Caspase-9, P55211 was -1%; with Caspase-7, P55210 it was -1%; with Cathepsin F, Q9UBX1, -23%. Moreover, the Percentage inhibition (%) at 10 µM was 0% in experiment [1]; 7% with Beta secretase, P56817; -7% with DPP7, Q9UHL4; 0% with A20, P21580; -1% with Ataxin3, P54252; 1% in [3]. Further, the Percentage inhibition (%) at 10 µM was -2% with Caspase-9, P55211; -7% in the experiment with Caspase-7, P55210; -25% in the experiment with Cathepsin F, Q9UBX1. Moreover, the % inhibition of control enzyme activity, compound at 10 µM was -22% with COX2(h) (human), P35354 and -4% in experiment [2].

B2: Hex-[Cys(tMeBn(DOTA-PP))-Pro-Pro-Thr-Gln-Phe-Cys]-Asp-NH2 (peptide)
peptide: Hex-CPPTQFCD-NH2
modifications: bridge 1-7; not fully specified (bridges); printed as Hex-[Cys(tMeBn(DOTA-PP))-Pro-Pro-Thr-Gln-Phe-Cys]-Asp-NH2
As for B2, the Percentage inhibition (%) at 1 µM is -1% in [1]; -8% with Beta secretase, P56817; 2% with DPP7, Q9UHL4; 2% with A20, P21580; 1% in the experiment with Ataxin3, P54252; 5% in experiment [3]. The Percentage inhibition (%) at 1 µM in the experiment with Caspase-9, P55211 is 5%; with Caspase-7, P55210, -3%; in the experiment with Cathepsin F, Q9UBX1, -3%. Further, the Percentage inhibition (%) at 10 µM in experiment [1] was 14%; with Beta secretase, P56817, -5%; with DPP7, Q9UHL4 it was -3%; in the experiment with A20, P21580 it was -4%; with Ataxin3, P54252, 10%; in [3], 8%. Also, the Percentage inhibition (%) at 10 µM with Caspase-9, P55211 was 8%; with Caspase-7, P55210, -3%; in the experiment with Cathepsin F, Q9UBX1 it was -24%. Besides, the % inhibition of control enzyme activity, compound at 10 µM is -14% with COX2(h) (human), P35354 and 10% in [2].
